The values below come from patent US9074002B2, “PTP1B inhibitors” (Cold Spring Harbor Laboratory, priority 2009, dated 2015).

First the molecules themselves.
T1: PTP1B under reducing condition (purified recombinant 37 kDa wild type PTP1B, with TCEP) (human, UniProt P18031 1-321)
T1 construct: Same protein as m1 but kept reduced (2 mM TCEP); also called reduced, active PTP1B
T1 sequence: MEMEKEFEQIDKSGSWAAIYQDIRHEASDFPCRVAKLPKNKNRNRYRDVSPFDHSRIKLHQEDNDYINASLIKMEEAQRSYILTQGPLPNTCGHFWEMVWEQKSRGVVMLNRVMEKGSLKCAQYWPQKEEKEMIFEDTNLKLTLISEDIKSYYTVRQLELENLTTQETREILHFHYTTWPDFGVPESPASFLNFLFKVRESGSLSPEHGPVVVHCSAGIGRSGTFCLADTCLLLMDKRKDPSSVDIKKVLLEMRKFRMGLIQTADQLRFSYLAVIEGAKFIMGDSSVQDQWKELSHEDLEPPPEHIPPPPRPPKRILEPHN

T2: PTP1B-OX (purified recombinant 37 kDa PTP1B, reversibly oxidized with H2O2) (human, UniProt P18031 1-321, catalytic Cys 215 reversibly oxidized by H2O2 (cyclic sulphenamide form))
T2 construct: also called PTP1B-SN
T2 sequence: T1 sequence

B1: scFv48 (scFv)
scFv: LTQPSSVSANPGETVKITCSEGGRSSYYGWYQQKAPGSAPVTVIYDSSSRPSDIPSRFSGSKSGSTGTLTITGVQAEDEAVYYCGSTDSSTSAAIFGAGTTLTVLGQSSRSSTVTLDESGGGLQTPGRALSLVCKASGFTFSSFNMGWVRQAPGKGLEYVASISSSGSYTAYGSAVKGRATISRDNGQSTVRLQLNNLRAEDTATYYCAKAAGSAYYYTAVTPAFAGSIDAWGHGTEVIVSSTSGQAGQHHHHHHGAYPYDVPDYAS
B2: scFv21 (scFv)
scFv: LTQPSSVSANPGGTVKITCSGSSGSYYGWYQQKSPGSAPVTVIYDNDKRPSDVPSRFSGSKSGPTATLTITGVQAEDEAVYFCGSRDNSYVGIFGAGTTLTVLGQSSRSSAVTLDESGGGLQTPGGALSLVCKASGFTFSSYDMFWVRQAPGKGLEFVAQINSAGSYTNYGSAVKGRATISRDDGQSTVRLQLNNLRAEDTGIYFCAKSASGYYYSGSDAGDIDAWGHGTEVIVSSTSGQAGQHHHHHHGAYPYDVPDYAS
B3: scFv20 (scFv)
scFv: LTQPSSVSANLGGIVEITCSGSSGSYGWYQQKSPGSAPVTVIYYNDKRPSNIPSRFSGSGSGSTNTLTIAGVRAEDEAVYYCGNEDSSGAAFGAGTTLTVLGQSSRSSAVTLDESGGGLQTPGGGLSLVCKASGFTFSDYDMFWVRQAPSKGLEFVAAITSSGTGTKYGAAVKGRATISKDNGQRTVRLQLNSLGAEDTGTYYCARSDADSTTWSAGEIDAWGHGTEVIVSSTSGQAGQHHHHHHGAYPYDVPDYAS

The first assay concerns the target T1, PTP1B under reducing condition …. Description: in vitro Ni-NTA pull-down of purified scFv with purified PTP1B in 2 mM TCEP, immunoblot. How it is done:
(§1) In the in vitro binding assay, purified PTP was reversibly oxidized with […] followed by a quick buffer exchange to remove H_2O_2 (FIG. 8). Purified scFv was incubated in molar excess with PTP1B-OX or with PTP under reducing condition (with 2 mM TCEP) in binding buffer (20 mM HEPES, pH 7.4, 300 mM NaCl, 0.05% BSA, 0.05% Tween-20 and 10 mM imidazole) for 2 hours at 4° C. Ni-NTA agarose was added and incubated for one hour at 4° C. Protein complex bound to Ni-NTA agarose beads was pulled down and washed (three times, 5 minutes each, at 4° C.) with binding buffer containing 20 mM imidazole to reduce non-specific binding to the beads. The protein complex was eluted from the Ni-NTA agarose beads with 500 mM imidazole (in binding buffer, pH 7.4) for 15 minutes at 4° C. with gentle shaking. The complex was separated by SDS-PAGE and PTP1B was detected with anti-PTP1B antibody (FG6) and scFv was detected with anti-HA antibody [anti-HA (3F10)-HRP, Roche] by immunoblotting. Eight different scFvs (scFvs 20, 21, 24, 28, 45, 48, 57, and 105), expressed and purified from bacterial cultures were tested by this in vitro binding experiment.
As to B1, the binding result is “no binding”.

Consider B2, for which the binding result is on record as “no binding”.

B3: the binding result was “no binding”.

The target in the next assay is T2, PTP1B-OX (purified recombinant 37 kDa …). The assay is described as follows: in vitro Ni-NTA pull-down of purified scFv with purified PTP1B-OX, immunoblot. How it is done:
as §1
A general note: Immunoblotting shows a protein as a band on a membrane.
In the case of B1, the binding result is on record as “no binding”.

Turning to B2, the binding result is on record as “no binding”.

Take B3: the binding result is on record as “no binding”.
